B1: HSPA1A -141/-91 promoter (dsDNA)
DNA 1: GGAAGGCTGGGGGGCAGGACGGGAGGCGAAAACCCTGGAATATTCCCGACC
DNA 2: GGTCGGGAATATTCCAGGGTTTTCGCCTCCCGTCCTGCCCCCCAGCCTTCC

Legend:
[1] = target: T1, eEF1A1 (Homo sapiens (HeLa S-100)) (UniProt P68104); assay: EMSA; details: RNA EMSA: purified eEF1A1 with 20 kcpm RNA (~0.1 pmol/ul), 50 uM GTP, 30 min, room temperature; protein stock in 50 mM Tris-HCl pH 7.5, 100 mM KCl, 0.5 mM …
T1 sequence: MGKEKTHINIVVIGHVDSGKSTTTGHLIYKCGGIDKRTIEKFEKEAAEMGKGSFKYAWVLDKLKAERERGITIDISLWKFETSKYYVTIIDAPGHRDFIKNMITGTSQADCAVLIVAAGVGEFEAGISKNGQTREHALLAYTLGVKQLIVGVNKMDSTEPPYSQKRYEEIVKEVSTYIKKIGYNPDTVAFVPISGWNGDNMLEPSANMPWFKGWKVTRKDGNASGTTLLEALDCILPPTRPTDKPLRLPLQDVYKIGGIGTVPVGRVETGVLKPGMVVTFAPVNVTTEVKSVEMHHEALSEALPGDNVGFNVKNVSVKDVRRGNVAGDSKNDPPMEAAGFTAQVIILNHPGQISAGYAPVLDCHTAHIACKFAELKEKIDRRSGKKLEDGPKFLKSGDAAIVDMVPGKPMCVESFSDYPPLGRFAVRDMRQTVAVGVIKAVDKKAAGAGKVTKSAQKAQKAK

eEF1A1 = eEF1A1 (Homo sapiens (HeLa S-100), UniProt P68104 1-462); assay: EMSA; relatively weak; reviewer notes no saturation, >300 nM; RNA EMSA: purified eEF1A1 with 20 kcpm RNA (~0.1 pmol/ul), 50 uM GTP, 30 min, room temperature; protein stock in 50 mM Tris-HCl pH 7.5, 100 mM KCl, 0.5 mM EDTA, 2 mM DTT, 10% glycerol; binding buffer per cited protocols (Yan 2008, Shamovsky 2006); details: protein: native; tags: none; (radiolabeled); blunt

| Molecule | Kd [1] | binding [1] | binding result (eEF1A1) |
| --- | --- | --- | --- |
| GGGGGGCCUUUCCAAGAUUGCUGUUUUUGUUUUGGAGCUUCAAGACUUUGCAUUUCCUAGUAUUUCUGUUUGUCAGUUCUCAAUUUCCUGUGUUUGCAAUGUUGAAAUUUUUUGGUGAAGUACUGAACUUGCUUUUUUUCCGGUUUCUACAUGCAGAGAUGAAUUUAUACUGCCAUCUUACGACUAUUUCUUCUUUUUAAUACACUUAACUCAGGCCAUUUUUUAAGUUGGUUACUUCAAAGUAAAUAAACUUUAAAAUUCAA [HSP70 3'UTR] | 100 nM | binds | – |
| HSP70 3'UTR | 100 nM | – | – |
| B1 | – | – | binds |
